{"source": "patent US20210122826A1", "about": "(MIT, published 2021)", "test_in_all_cases": "flow, Jurkat, 100 nM Ab", "key": {"human CD161": {"target": "T1, human CD161 (human, UniProt Q12918 1-225)", "T1 construct": "UniProt Q12918; also called hCD161; KLRB1"}, "Human OLR1": {"target": "T2, Human OLR1 (human, UniProt P78380 1-273)", "T2 construct": "also called hOLR1"}, "Human KLRF1": {"target": "T3, Human KLRF1 (human, UniProt Q9NZS2 1-231)", "T3 construct": "also called hKLRF1", "T3 sequence": "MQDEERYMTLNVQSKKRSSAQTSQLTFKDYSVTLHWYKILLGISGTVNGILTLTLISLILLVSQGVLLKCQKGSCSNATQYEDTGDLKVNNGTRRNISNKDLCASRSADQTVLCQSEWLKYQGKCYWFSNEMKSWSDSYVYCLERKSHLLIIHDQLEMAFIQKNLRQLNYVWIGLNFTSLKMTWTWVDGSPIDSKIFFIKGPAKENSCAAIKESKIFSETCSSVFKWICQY"}, "Human Clec5A": {"target": "T4, Human Clec5A (human, UniProt Q9NY25 1-188)", "T4 construct": "also called hClec5A", "T4 sequence": "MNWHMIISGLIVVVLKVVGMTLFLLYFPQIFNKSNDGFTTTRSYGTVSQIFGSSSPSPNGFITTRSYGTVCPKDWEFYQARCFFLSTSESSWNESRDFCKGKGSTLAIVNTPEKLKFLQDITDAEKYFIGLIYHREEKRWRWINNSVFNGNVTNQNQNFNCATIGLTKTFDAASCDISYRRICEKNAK"}, "Human Clec4E": {"target": "T5, Human Clec4E (human, UniProt Q9ULY5 1-219)", "T5 construct": "also called hClec4E", "T5 sequence": "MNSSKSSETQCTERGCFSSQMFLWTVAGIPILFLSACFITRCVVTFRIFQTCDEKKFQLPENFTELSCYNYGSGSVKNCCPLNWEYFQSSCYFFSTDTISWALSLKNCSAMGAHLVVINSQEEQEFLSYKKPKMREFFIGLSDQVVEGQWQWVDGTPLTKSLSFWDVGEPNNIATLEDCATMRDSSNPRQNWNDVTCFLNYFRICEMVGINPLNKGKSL"}, "cynomolgus CD161": {"target": "T6, cynomolgus CD161 (cynomolgus)", "T6 construct": "UniProt A0A2K5WYI1; also called cynoCD161", "T6 chain": "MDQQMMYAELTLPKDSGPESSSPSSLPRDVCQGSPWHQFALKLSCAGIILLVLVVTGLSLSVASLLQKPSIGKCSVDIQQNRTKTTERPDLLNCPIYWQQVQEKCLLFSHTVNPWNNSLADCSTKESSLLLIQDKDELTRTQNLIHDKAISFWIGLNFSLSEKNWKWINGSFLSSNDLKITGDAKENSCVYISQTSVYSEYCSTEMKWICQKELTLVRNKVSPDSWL"}, "Human CD94": {"target": "T7, Human CD94 (human, UniProt Q13241 1-179)", "T7 construct": "also called hCD94", "T7 sequence": "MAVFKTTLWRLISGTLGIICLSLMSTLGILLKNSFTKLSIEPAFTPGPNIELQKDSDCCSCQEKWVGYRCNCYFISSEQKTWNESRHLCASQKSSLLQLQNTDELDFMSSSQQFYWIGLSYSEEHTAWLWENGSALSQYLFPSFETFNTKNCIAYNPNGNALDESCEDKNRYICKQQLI"}, "Human Clec10A": {"target": "T8, Human Clec10A (human, UniProt Q8IUN9 1-316)", "T8 construct": "also called hClec10A", "T8 sequence": "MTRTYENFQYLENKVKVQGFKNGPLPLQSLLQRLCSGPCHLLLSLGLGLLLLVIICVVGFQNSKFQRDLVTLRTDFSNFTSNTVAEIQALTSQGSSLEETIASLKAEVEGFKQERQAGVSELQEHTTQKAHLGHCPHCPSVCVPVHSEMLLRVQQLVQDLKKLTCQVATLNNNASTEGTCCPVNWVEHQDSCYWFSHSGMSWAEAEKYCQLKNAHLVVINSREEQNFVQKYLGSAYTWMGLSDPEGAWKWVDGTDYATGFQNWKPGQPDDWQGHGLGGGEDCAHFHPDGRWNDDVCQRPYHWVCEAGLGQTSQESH"}, "Human Clec7A": {"target": "T9, Human Clec7A (human, UniProt Q9BXN2 1-247)", "T9 construct": "also called hClec7A", "T9 sequence": "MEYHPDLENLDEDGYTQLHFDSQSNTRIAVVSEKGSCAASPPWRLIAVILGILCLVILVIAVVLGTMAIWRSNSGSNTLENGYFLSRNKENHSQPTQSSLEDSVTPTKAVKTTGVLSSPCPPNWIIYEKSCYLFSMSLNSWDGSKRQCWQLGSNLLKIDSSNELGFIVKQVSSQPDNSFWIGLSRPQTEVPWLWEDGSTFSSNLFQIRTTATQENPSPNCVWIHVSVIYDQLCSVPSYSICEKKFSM"}, "Human KLRF2": {"target": "T10, Human KLRF2 (human, UniProt D3W0D1 1-207)", "T10 construct": "also called hKLRF2", "T10 sequence": "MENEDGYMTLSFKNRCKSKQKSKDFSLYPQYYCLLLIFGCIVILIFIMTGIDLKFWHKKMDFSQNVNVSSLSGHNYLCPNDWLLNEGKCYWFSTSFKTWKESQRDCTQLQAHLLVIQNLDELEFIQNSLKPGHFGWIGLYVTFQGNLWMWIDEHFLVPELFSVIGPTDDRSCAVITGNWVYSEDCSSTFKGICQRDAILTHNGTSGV"}, "Human Clec9A": {"target": "T11, Human Clec9A (human, UniProt Q6UXN8 1-241)", "T11 construct": "also called hClec9A", "T11 sequence (Q6UXN8 whole entry)": "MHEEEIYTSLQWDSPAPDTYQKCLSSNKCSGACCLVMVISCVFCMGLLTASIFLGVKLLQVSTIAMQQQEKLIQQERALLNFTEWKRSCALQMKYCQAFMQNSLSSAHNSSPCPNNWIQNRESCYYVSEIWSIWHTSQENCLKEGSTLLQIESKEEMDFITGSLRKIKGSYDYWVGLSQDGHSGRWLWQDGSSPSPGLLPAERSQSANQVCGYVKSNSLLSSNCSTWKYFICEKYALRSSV"}}, "data": [{"binder": "anti-CD161 KW17 (antibody, V domains shown, Human, lambda light chain; scFv-Fc or full IgG not clear; also called KW17-Fc) VH: not shown VL: QSVLTQPPSVSGAPGQRVTISCTGSSSNIGAGYDVHWYQQLPGTAPKLLIYGNSNRPSGVPDRFSGSKSGTSASLAITGLQAEDEADYYCQSYDSSHTVFGGGTQLTVL", "values": [{"measurement": "MFI normalized to WT", "setting": "human CD161", "result": 53.9}, {"measurement": "MFI normalized to WT", "setting": "Human OLR1", "result": 0.98}, {"measurement": "MFI normalized to WT", "setting": "Human KLRF1", "result": 0.89}, {"measurement": "MFI normalized to WT", "setting": "Human Clec5A", "result": 1.04}, {"measurement": "MFI normalized to WT", "setting": "Human Clec4E", "result": 0.94}, {"measurement": "MFI normalized to WT", "setting": "cynomolgus CD161", "result": 0.98}, {"measurement": "MFI normalized to WT", "setting": "Human CD94", "result": 0.95}, {"measurement": "MFI normalized to WT", "setting": "Human Clec10A", "result": 0.96}, {"measurement": "MFI normalized to WT", "setting": "Human Clec7A", "result": 1.13}, {"measurement": "MFI normalized to WT", "setting": "Human KLRF2", "result": 1.01}, {"measurement": "MFI normalized to WT", "setting": "Human Clec9A", "result": 1.07}]}]}
